# From paper PMC3339974 (The Journal of Biological Chemistry, 2012)
# B1: 2C11 Fab (Fab, V domains shown)
# VH: EVQLVESGGGLVQPGKSLKLSCEASGFTFSGYGMHWVRQAPGRGLESVAYITSSSINIKYADAVKGRFTVSRDNAKNLLFLQMNILKSEDTAMYYCARFDWDKNYWGQGTMVTVSS
# VL: DIQMTQSPSSLPASLGDRVTINCQASQDISNYLNWYQQKPGKAPKLLIYYTNKLADGVPSRFSGSGSGRDSSFTISSLESEDIGSYYCQQYYNYPWTFGPGTKLEIK
# Tests used:
# [1] = target: soluble mouse CD3ϵ ectodomain homodimer (mouse) (UniProt P22646)
# [2] = target: T1, soluble mouse CD3ϵ ectodomain homodimer (Mus musculus (strain )); assay: crystal structure
# T1 chain: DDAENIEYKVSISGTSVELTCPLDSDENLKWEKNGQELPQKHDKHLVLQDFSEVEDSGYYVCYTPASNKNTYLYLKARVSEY
Molecule,stoichiometry N [1],binding result [2]
soluble mouse CD3ϵ ectodomain homodimer (from UniProt P22646 23-108) (domain or fragment),2,–
B1,–,binds
